Holding throughout (format): binding
Assay [1] in a line: Probe fluorescence ratio response to linolenic acid relative to ADIFAB2. Conditions: response relative to ADIFAB2. The method, boiled down:
(§1)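 Fluorescently labeled rat intestinal FABP variants were read at two emission wavelengths, near the unbound maximum (about 420 to 480 nm) and the FFA-bound maximum (about 495 to 580 nm). R = Fλ1/Fλ2 after subtracting probe-free intensity; ΔR = R+agent − R0, normalized to ADIFAB2 (rI-FABP-L72A).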

A short description of assay [2]: Probe fluorescence ratio response to palmitic acid relative to ADIFAB2. The following applies: response relative to ADIFAB2. The method in brief: as §1
Assay [3] in a line: Probe fluorescence ratio response to linoleic acid relative to ADIFAB2. The following applies: response relative to ADIFAB2. The method in brief: as §1
Assay [4] can be described thus: Probe fluorescence ratio response to arachidonic acid relative to ADIFAB2. Conditions: Arachidonic acid; response relative to ADIFAB2. The method, boiled down:
as §1

Assay [5] can be described thus: Probe fluorescence ratio response to oleic acid relative to ADIFAB2. Conditions: response relative to ADIFAB2. The method in brief: as §1

The values below come from patent publication US20060257938A1, “Method of screening for drugs that block ligand binding to a lipid binding protein” (priority 2005, published 2006).

B1: 51T3, 72A (protein, listed as Rattus norvegicus)
chain: AFDGTWKVDRNENYEKFMEKMGINVVKRKLGAHDNLKLTITQEGNKFTVKTSSNFRNIDVVFELGVDFAYSAADGTELTGTWTMEGNKLVGKFKRVDNGKELIAVREISGNELIQTYTYEGVEAKRIFKKE
modifications: PEPTIDE (1)...(131) wild-type rat intestinal fatty acid binding protein
B1: the “DR/DR LNA” value in assay [1] was found to be 1.60. Further, in assay [2], the “DR/DR PA” value is 0.71. Besides, the “DR/DR LA” value in assay [3] came to 1.65. In addition, the “DR/DR AA” value in assay [4] turned out to be 1.60. Also, in assay [5], the “DR/DR OA” value is given as 1.44.

B2: 55N1, 72A (protein, listed as Rattus norvegicus)
chain: AFDGTWKVDRNENYEKFMEKMGINVVKRKLGAHDNLKLTITQEGNKFTVKESSNNRNIDVVFELGVDFAYSAADGTELTGTWTMEGNKLVGKFKRVDNGKELIAVREISGNELIQTYTYEGVEAKRIFKKE
modifications: PEPTIDE (1)...(131) wild-type rat intestinal fatty acid binding protein
Take B2: in assay [1], the “DR/DR LNA” value came to 0.30. For the same molecule, the “DR/DR PA” value in assay [2] is 0.22. The “DR/DR LA” value in assay [3] turned out to be 0.29. In assay [4], the “DR/DR AA” value is 0.34. Besides, in assay [5], the “DR/DR OA” value was found to be 0.27.

B3: 55M1, 72A (protein, listed as Rattus norvegicus)
chain: AFDGTWKVDRNENYEKFMEKMGINVVKRKLGAHDNLKLTITQEGNKFTVKESSNMRNIDVVFELGVDFAYSAADGTELTGTWTMEGNKLVGKFKRVDNGKELIAVREISGNELIQTYTYEGVEAKRIFKKE
modifications: PEPTIDE (1)...(131) wild-type rat intestinal fatty acid binding protein
For B3, in assay [1], the “DR/DR LNA” value turned out to be 1.42. Moreover, the “DR/DR PA” value in assay [2] came out at 0.84. The “DR/DR LA” value in assay [3] is 0.97. The “DR/DR AA” value in assay [4] is given as 1.40. Further, in assay [5], the “DR/DR OA” value amounted to 1.41.

B4: 55A1, 72A (protein, listed as Rattus norvegicus)
chain: AFDGTWKVDRNENYEKFMEKMGINVVKRKLGAHDNLKLTITQEGNKFTVKESSNARNIDVVFELGVDFAYSAADGTELTGTWTMEGNKLVGKFKRVDNGKELIAVREISGNELIQTYTYEGVEAKRIFKKE
modifications: PEPTIDE (1)...(131) wild-type rat intestinal fatty acid binding protein
On to B4, for which the “DR/DR LNA” value in assay [1] is listed as 0.36. For the same molecule, the “DR/DR PA” value in assay [2] stood at 0.28. Also, the “DR/DR LA” value in assay [3] is reported as 0.34. Further, the “DR/DR AA” value in assay [4] was 0.33. Also, the “DR/DR OA” value in assay [5] is 0.30.

B5: 51V3, 72A (protein, listed as Rattus norvegicus)
chain: AFDGTWKVDRNENYEKFMEKMGINVVKRKLGAHDNLKLTITQEGNKFTVKVSSNFRNIDVVFELGVDFAYSAADGTELTGTWTMEGNKLVGKFKRVDNGKELIAVREISGNELIQTYTYEGVEAKRIFKKE
modifications: PEPTIDE (1)...(131) wild-type rat intestinal fatty acid binding protein
Turning to B5, in assay [1], the “DR/DR LNA” value worked out at 1.53. Besides, in assay [2], the “DR/DR PA” value is on record as 0.73. For the same molecule, the “DR/DR LA” value in assay [3] is given as 1.64. Moreover, in assay [4], the “DR/DR AA” value was 1.52. The “DR/DR OA” value in assay [5] worked out at 1.43.

B6: 55E, 72A (protein, listed as Rattus norvegicus)
chain: AFDGTWKVDRNENYEKFMEKMGINVVKRKLGAHDNLKLTITQEGNKFTVKESSNERNIDVVFELGVDFAYSAADGTELTGTWTMEGNKLVGKFKRVDNGKELIAVREISGNELIQTYTYEGVEAKRIFKKE
modifications: PEPTIDE (1)...(131) wild-type rat intestinal fatty acid binding protein
Consider B6, for which the “DR/DR LNA” value in assay [1] was 0.21. Besides, in assay [2], the “DR/DR PA” value is recorded as 0.17. The “DR/DR LA” value in assay [3] was 0.21. In assay [4], the “DR/DR AA” value is 0.21. For the same molecule, the “DR/DR OA” value in assay [5] is recorded as 0.21.

B7: 55L1, 72A (protein, listed as Rattus norvegicus)
chain: AFDGTWKVDRNENYEKFMEKMGINVVKRKLGAHDNLKLTITQEGNKFTVKESSNLRNIDVVFELGVDFAYSAADGTELTGTWTMEGNKLVGKFKRVDNGKELIAVREISGNELIQTYTYEGVEAKRIFKKE
modifications: PEPTIDE (1)...(131) wild-type rat intestinal fatty acid binding protein
For the molecule B7, the “DR/DR LNA” value in assay [1] came out at 0.72. Besides, the “DR/DR PA” value in assay [2] turned out to be 0.63. For the same molecule, the “DR/DR LA” value in assay [3] was determined as 0.71. In addition, the “DR/DR AA” value in assay [4] is recorded as 0.86. Also, the “DR/DR OA” value in assay [5] is 0.82.

B8: 55D1, 72A (protein, listed as Rattus norvegicus)
chain: AFDGTWKVDRNENYEKFMEKMGINVVKRKLGAHDNLKLTITQEGNKFTVKESSNDRNIDVVFELGVDFAYSAADGTELTGTWTMEGNKLVGKFKRVDNGKELIAVREISGNELIQTYTYEGVEAKRIFKKE
modifications: PEPTIDE (1)...(131) wild-type rat intestinal fatty acid binding protein
Regarding B8, the “DR/DR LNA” value in assay [1] is given as 0.12. The “DR/DR PA” value in assay [2] was 0.10. Moreover, in assay [3], the “DR/DR LA” value is given as 0.12. Further, in assay [4], the “DR/DR AA” value is listed as 0.11. Also, the “DR/DR OA” value in assay [5] was 0.10.

B9: 55G1, 72A (protein, listed as Rattus norvegicus)
chain: AFDGTWKVDRNENYEKFMEKMGINVVKRKLGAHDNLKLTITQEGNKFTVKESSNGRNIDVVFELGVDFAYSAADGTELTGTWTMEGNKLVGKFKRVDNGKELIAVREISGNELIQTYTYEGVEAKRIFKKE
modifications: PEPTIDE (1)...(131) wild-type rat intestinal fatty acid binding protein
Regarding B9, the “DR/DR LNA” value in assay [1] is 0.23. Moreover, in assay [2], the “DR/DR PA” value is recorded as 0.18. Further, in assay [3], the “DR/DR LA” value is reported as 0.22. In addition, the “DR/DR AA” value in assay [4] came out at 0.19. The “DR/DR OA” value in assay [5] was determined as 0.19.

B10: 55K1, 72A (protein, listed as Rattus norvegicus)
chain: AFDGTWKVDRNENYEKFMEKMGINVVKRKLGAHDNLKLTITQEGNKFTVKESSNKRNIDVVFELGVDFAYSAADGTELTGTWTMEGNKLVGKFKRVDNGKELIAVREISGNELIQTYTYEGVEAKRIFKKE
modifications: PEPTIDE (1)...(131) wild-type rat intestinal fatty acid binding protein
With B10, the “DR/DR LNA” value in assay [1] was found to be 0.35. Further, in assay [2], the “DR/DR PA” value is recorded as 0.27. Further, the “DR/DR LA” value in assay [3] was determined as 0.34. Besides, the “DR/DR AA” value in assay [4] is reported as 0.32. Further, the “DR/DR OA” value in assay [5] stood at 0.30.

B11: 55I1, 72A (protein, listed as Rattus norvegicus)
chain: AFDGTWKVDRNENYEKFMEKMGINVVKRKLGAHDNLKLTITQEGNKFTVKESSNIRNIDVVFELGVDFAYSAADGTELTGTWTMEGNKLVGKFKRVDNGKELIAVREISGNELIQTYTYEGVEAKRIFKKE
modifications: PEPTIDE (1)...(131) wild-type rat intestinal fatty acid binding protein
Turning to B11, the “DR/DR LNA” value in assay [1] came to 0.89. For the same molecule, in assay [2], the “DR/DR PA” value is recorded as 0.77. For the same molecule, the “DR/DR LA” value in assay [3] turned out to be 0.83. For the same molecule, the “DR/DR AA” value in assay [4] is 1.08. Also, the “DR/DR OA” value in assay [5] was found to be 0.90.

B12: 55P1, 72A (protein, listed as Rattus norvegicus)
chain: AFDGTWKVDRNENYEKFMEKMGINVVKRKLGAHDNLKLTITQEGNKFTVKESSNPRNIDVVFELGVDFAYSAADGTELTGTWTMEGNKLVGKFKRVDNGKELIAVREISGNELIQTYTYEGVEAKRIFKKE
modifications: PEPTIDE (1)...(131) wild-type rat intestinal fatty acid binding protein
Take B12: the “DR/DR LNA” value in assay [1] is recorded as 0.96. In assay [2], the “DR/DR PA” value was found to be 0.54. Besides, in assay [3], the “DR/DR LA” value is recorded as 1.05. The “DR/DR AA” value in assay [4] is reported as 1.01. The “DR/DR OA” value in assay [5] is reported as 0.93.

B13: 51W2, 72A (protein, listed as Rattus norvegicus)
chain: AFDGTWKVDRNENYEKFMEKMGINVVKRKLGAHDNLKLTITQEGNKFTVKWSSNFRNIDVVFELGVDFAYSAADGTELTGTWTMEGNKLVGKFKRVDNGKELIAVREISGNELIQTYTYEGVEAKRIFKKE
modifications: PEPTIDE (1)...(131) wild-type rat intestinal fatty acid binding protein
As for B13, the “DR/DR LNA” value in assay [1] is given as 1.70. The “DR/DR PA” value in assay [2] stood at 0.80. In addition, the “DR/DR LA” value in assay [3] is 1.77. In addition, in assay [4], the “DR/DR AA” value turned out to be 1.69. Also, in assay [5], the “DR/DR OA” value was found to be 1.55.

B14: 51Y1, 72A (protein, listed as Rattus norvegicus)
chain: AFDGTWKVDRNENYEKFMEKMGINVVKRKLGAHDNLKLTITQEGNKFTVKYSSNFRNIDVVFELGVDFAYSAADGTELTGTWTMEGNKLVGKFKRVDNGKELIAVREISGNELIQTYTYEGVEAKRIFKKE
modifications: PEPTIDE (1)...(131) wild-type rat intestinal fatty acid binding protein
With B14, the “DR/DR LNA” value in assay [1] was determined as 1.44. In addition, the “DR/DR PA” value in assay [2] is reported as 0.72. In assay [3], the “DR/DR LA” value is reported as 1.50. For the same molecule, the “DR/DR AA” value in assay [4] is on record as 1.38. For the same molecule, the “DR/DR OA” value in assay [5] turned out to be 1.38.

B15: 55H2, 72A (protein, listed as Rattus norvegicus)
chain: AFDGTWKVDRNENYEKFMEKMGINVVKRKLGAHDNLKLTITQEGNKFTVKESSNHRNIDVVFELGVDFAYSAADGTELTGTWTMEGNKLVGKFKRVDNGKELIAVREISGNELIQTYTYEGVEAKRIFKKE
modifications: PEPTIDE (1)...(131) wild-type rat intestinal fatty acid binding protein
In the case of B15, the “DR/DR LNA” value in assay [1] is 0.32. For the same molecule, the “DR/DR PA” value in assay [2] is 0.26. Moreover, in assay [3], the “DR/DR LA” value turned out to be 0.38. In addition, the “DR/DR AA” value in assay [4] is listed as 0.36. Moreover, in assay [5], the “DR/DR OA” value is given as 0.27.
